Measured values: patent publication US20140271701A1

Biological target: serum antibodies (IgG) of Sardinian T1D patients, Example 1 (n=34; Ab+ sera) (human)
Assay: competition ELISA on MAP3865c125-133-coated plates, sera pre-adsorbed with saturating peptide

B1: MAP3865c125-133 peptide (…) (peptide)
peptide: MIAVALAGL
**Q.** With B1 as the binder, how does the percent inhibition read?
**A.** 57 to 89%
